Experimental data from US20260248972A1, “DUAL RECEPTOR TARGETING RADIOLIGANDS AND USES THEREOF RELATED APPLICATIONS” (priority 2022, published 2026).
*1 amine or outer side, *2 acyl side, *3 side chain or, on linkers, in order; H or OH if unused. Where a SMILES comes first, the peptide text is derived from it. Bridges are numbered along the chain shown (N, C = ends). Side-chain parts run from the residue outwards. [ ]: non-standard residue; d: D form. The star is where a group is joined. X1 = CC(C)(C)C(=O)CN1C(=O)[C@H](N*)CN(C2CCCCC2)c2ccccc21; DOTA = O=C(O)CN1CCN(CC(=O)O)CCN(CC(=O)*)CCN(CC(=O)O)CC1; 3Abz = Nc1cccc(C(=O)O)c1; CO = O=C([*:1])[*:2]

Experiment: in vivo
Conditions: BALB/c nude, mouse, in vivo, iv, total radioactivity
Experimental: To a 0.5 M NaOAc buffer (20-50 μL, pH=4.5) was added 4 μL of exemplary or comparator compound in DMSO stock solution (2000 μM) and 2 mCi ^177Lu (ITM Isotope Technologies Munich), the resulting mixture was heated to 95° C. for 15 min. The resulting product was analyzed by radio-TLC and radio-HPLC (column: Shim-pack GIST 5 μm 4.6*150 mm; buffer A: 0.2% formic acid H2O; buffer B: 0.1% formic acid acetonitrile; flow rate: 1 mL/min; gradient: 0-5 min: 10% B to 95% B; then 5-8 min: 95% B). The labelled products were used immediately or diluted by a PBS buffer containing freshly added 3 mg/mL ascorbate.
All animal care and experimental procedure were performed by following the animal protocols approved by the ethics committee of China Institute of Radiation Protection. The BALB/c nude mice (Charles River, Beijing) were utilized for these studies. Mice were below 5 per cage in sterile, microisolator cages under temperature- and humidity-controlled conditions with a 12 h light/12 h dark schedule and fed irradiated rodent chow and reverse osmosis (RO) sterile water ad libitum. In preparation for tumor cell inoculations, mice were anesthetized with isoflurane (RWD Life Science Inc.) at an induction rate of 4% and maintained at a rate of 2.5% with 0.4 L oxygen delivered via precision vaporizer and a non-rebreathing apparatus. These mice received subcutaneous rear flank injections of approximately 4×10^6 AR42J cells ([…] pancreatic cancer cell line) suspended in 200 μL of phosphate-buffered saline (PBS) and Matrigel (Corning) (1/1). Xenografted tumors were allowed to grow for ~2-4 weeks post-inoculation and ranged in mass from 0.05 to 0.50 g (average tumor size, 0.20 g). […] The mice were euthanized, and the tissues and organs were excised from the animals at 4, 24 and 72 h post-injection. The tissues and organs were weighed, counted in a PerkinElmer 2480 WIZARD2 γ counter, and the percent injected dose (% ID) and % ID/g of each organ or tissue were calculated.

`C[C@@H](O)[C@H](NC(=O)[C@@H]1CSSC[C@H](NC(=O)[C@@H](Cc2ccccc2)NC(=O)CNC(=O)[C@H](CO)NC(=O)CNC(=O)[C@H](CCCCNC(=O)c2cccc(NC(=O)N[C@@H]3CN(C4CCCCC4)c4ccccc4N(CC(=O)C(C)(C)C)C3=O)c2)NC(=O)CN2CCN(CC(=O)O)CCN(CC(=O)O)CCN(CC(=O)O)CC2)C(=O)N[C@@H](Cc2ccc(O)cc2)C(=O)N[C@H](Cc2c[nH]c3ccccc23)C(=O)N[C@@H](CCCCN)C(=O)N[C@@H]([C@@H](C)O)C(=O)N1)C(=O)O` [Compound 177Lu-I-54, metal not drawn] ({DOTA}-K([3Abz-CO-X1])GSG[dF]CY[dW]KTCT-OH; disulfide 6-11) showed a tissue uptake at 4 h (% ID/g Adrenal gland) of 2.34 %ID/g, a tissue uptake at 24 h (% ID/g Adrenal gland) of 1.64 %ID/g and a tissue uptake at 72 h (% ID/g Adrenal gland) of 1.12 %ID/g. The tissue uptake at 4 h (% ID/g Blood) was 0.81 %ID/g, the tissue uptake at 24 h (% ID/g Blood) was 0.16 %ID/g and the tissue uptake at 72 h (% ID/g Blood) was 0.09 %ID/g. It also gave a tissue uptake at 4 h (% ID/g Fat) of 3.5 %ID/g, a tissue uptake at 24 h (% ID/g Fat) of 3.78 %ID/g and a tissue uptake at 72 h (% ID/g Fat) of 2.66 %ID/g. The tissue uptake at 4 h (% ID/g Femur) was 0.83 %ID/g, the tissue uptake at 24 h (% ID/g Femur) was 0.66 %ID/g and the tissue uptake at 72 h (% ID/g Femur) was 0.79 %ID/g. The tissue uptake at 4 h (% ID/g Heart) was 1.29 %ID/g, the tissue uptake at 24 h (% ID/g Heart) was 0.65 %ID/g and the tissue uptake at 72 h (% ID/g Heart) was 0.5 %ID/g. For the same molecule, the tissue uptake at 4 h (% ID/g Intestine) was 2.07 %ID/g, the tissue uptake at 24 h (% ID/g Intestine) was 1.56 %ID/g and the tissue uptake at 72 h (% ID/g Intestine) was 1.14 %ID/g. For the same molecule, the tissue uptake at 4 h (% ID/g Kidney) was 20.7 %ID/g, the tissue uptake at 24 h (% ID/g Kidney) was 10.5 %ID/g and the tissue uptake at 72 h (% ID/g Kidney) was 8.45 %ID/g. For the same molecule, the tissue uptake at 4 h (% ID/g Liver) was 31.6 %ID/g, the tissue uptake at 24 h (% ID/g Liver) was 9.6 %ID/g and the tissue uptake at 72 h (% ID/g Liver) was 5.01 %ID/g. The tissue uptake at 4 h (% ID/g Lung) was 2.65 %ID/g, the tissue uptake at 24 h (% ID/g Lung) was 2.77 %ID/g and the tissue uptake at 72 h (% ID/g Lung) was 1.91 %ID/g. It also gave a tissue uptake at 4 h (% ID/g Muscle) of 0.3 %ID/g, a tissue uptake at 24 h (% ID/g Muscle) of 0.21 %ID/g and a tissue uptake at 72 h (% ID/g Muscle) of 0.16 %ID/g. It also gave a tissue uptake at 4 h (% ID/g Pancreas) of 3.91 %ID/g, a tissue uptake at 24 h (% ID/g Pancreas) of 2.65 %ID/g and a tissue uptake at 72 h (% ID/g Pancreas) of 2.42 %ID/g. It also gave a tissue uptake at 4 h (% ID/g Spleen) of 1.25 %ID/g, a tissue uptake at 24 h (% ID/g Spleen) of 0.71 %ID/g and a tissue uptake at 72 h (% ID/g Spleen) of 1.28 %ID/g. It also gave a tissue uptake at 4 h (% ID/g Stomach) of 4.81 %ID/g, a tissue uptake at 24 h (% ID/g Stomach) of 4.1 %ID/g and a tissue uptake at 72 h (% ID/g Stomach) of 4.2 %ID/g. For the same molecule, the tissue uptake at 4 h (% ID/g Tumor) was 30 %ID/g, the tissue uptake at 24 h (% ID/g Tumor) was 25.7 %ID/g and the tissue uptake at 72 h (% ID/g Tumor) was 19.6 %ID/g.

In the case of `C[C@@H](O)[C@H](NC(=O)[C@@H]1CSSC[C@H](NC(=O)[C@@H](Cc2ccccc2)NC(=O)COCCOCCNC(=O)[C@H](CCCCNC(=O)CC[C@H](NC(=O)CNC(=O)c2cccc(NC(=O)N[C@@H]3CN(C4CCCCC4)c4ccccc4N(CC(=O)C(C)(C)C)C3=O)c2)C(=O)O)NC(=O)COCCOCCNC(=O)COCCOCCNC(=O)COCCOCCNC(=O)COCCOCCNC(=O)COCCOCCNC(=O)CC[C@H](NC(=O)CN2CCN(CC(=O)O)CCN(CC(=O)O)CCN(CC(=O)O)CC2)C(=O)O)C(=O)N[C@@H](Cc2ccc(O)cc2)C(=O)N[C@H](Cc2c[nH]c3ccccc23)C(=O)N[C@@H](CCCCN)C(=O)N[C@@H]([C@@H](C)O)C(=O)N1)C(=O)O` [Compound I-22, DOTA-gE-OEG-OEG-OEG-OEG-OEG-K(-gE-G-Z360)-OEG-f[CYwKTC]T-OH)], the tissue to tissue ratio at 24 h (T/K Tumor/Kidney ratio) is reported as 0.6, the tissue to tissue ratio at 24 h (T/L Tumor/Liver ratio) is reported as 12 and the tissue to tissue ratio at 24 h (T/P Tumor/Pancreas ratio) is reported as 5. For the same molecule, the tissue to tissue ratio at 24 h (T/Sp Tumor/Spleen ratio) was 12, the tissue to tissue ratio at 24 h (T/St Tumor/Stomach ratio) was 7.5 and the tissue uptake at 24 h (uptake Kidney) was 21.9 %ID/g. The tissue uptake at 24 h (uptake Liver) was 1.1 %ID/g, the tissue uptake at 24 h (uptake Pancreas) was 2.6 %ID/g and the tissue uptake at 24 h (uptake Spleen) was 1.1 %ID/g. For the same molecule, the tissue uptake at 24 h (uptake Stomach) was 1.7 %ID/g and the tissue uptake at 24 h (uptake Tumor) was 12.7 %ID/g.
